Measured values taken from the nanobody polyreactivity screen of Harvey et al. (2022).

Assay: yeast display, Sf9 membrane polyspecificity reagent, FACS + sequencing; frameworks hold sequencing errors
Summary of the method: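 Nanobodies from a synthetic yeast display library (Saccharomyces cerevisiae BJ5465), induced 36–48 hours with galactose, were stained 1 hour at 4 °C with 10% biotinylated, detergent-solubilized Sf9 membrane reagent, enriched on streptavidin microbeads, then FACS-sorted. Anti-HA (expression) and streptavidin (reagent binding) fluorescence set low and high (top ~1%) gates. Polyreactivity labels come from the gate of origin. Genes were colony-PCR amplified, MiSeq 2 × 250 sequenced and filtered by CDR length.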

Sequence	polyreactivity (PSR sort gate)
QVQLVESGGGLVQAGGSLRLSCAASGFTFYTYAMGWYRQAPGKERELVADISSGGSTNYADPVKGRFTISRDNAKNTVDLQMNCLKPEDTAVYYCSADYYFLDWYDYWGQGTQVTVSS	low polyreactivity
QVQLVESGGGLVQAGGSLRLSCAASGFTFVGNAMGWSRQAPGKERELVATITSGGNTKYADSVKGRFTISRDNAKNTVYLQMHSLKPEDTAVYYCAAAKYNYRRFNYWGQGTQVTVSS	low polyreactivity
QVQLVESGGGLVQAGGSLRLSCAASGSIFYYAMGWYRQAPGKERELVAAITWRGGRTYYADSVKGRFTISRDNAKNTVYLQMNSLKPEDTAVYDFNAVAPGKYNLWGQGTQVTVSS	high polyreactivity
QVQHVESGLGLDQAAGSLRLSSAASGFIFWYSSMGWYREARGKERELVAAITGGAITYYADSVKGRFTITRDNAKNTVYLPMNSLIPEDTAVYYGADELTLGRFRYDYWGQGTQVTVSA	high polyreactivity
QVQLVESGGGLVQAGGSLRLSCAASGLIFYDNMGWYRQAPGKERELVAAISSSGGSTSYADSVKGRFTISRDNAKNTVYLQMNSLKPEDTAVYYCAADVELWVFRGQQYDYWGQGTQVTVSS	low polyreactivity
QVQLVESGGGLVQAGGSLRLSCAASGSIFRWNAMGWNRQEPGKERELVAVINSSGGSTYYADSVKGRFTISRDNAKNTVYLQMNSLKPEDTAVYYCAKGYDTTLTYNYWGQGTQVTVSS	low polyreactivity
QVQLVESGGGLVQAGGSLRLSCAASGFTFERYSMGWYRQAAGKEMELVASISRRSGRTSYADSVKGRFTISRDNAKNTVYLQMKSLIPEDTAVYYCAVDDAYPDGYDYWGQGTQVTVSS	high polyreactivity
KSGGGLVQAGGSLRLSCAASGRIFLEYAMAWYKQAPGKERELFASISWSGDSTYYADSVKGRFTISRDNAKNTVYLQKNSLKPEDTAVYYCNADGQVGNAVSYDYWGQGTQVTVSS	low polyreactivity
QVQLEESGVGLVQAGGSLRLSCAASGRTFHIYAMGWYRQAPGKERELVADIRGRSGSTYYADSVKGRFTISRDNAKITVYLQMNSLKPEDTAVYYCAVGRYPYCSARYRFDYWGQGTQVSVSS	high polyreactivity
QVHLVESGGGLVQAGGSLRLSCAASGYIFTGYAMGCYRQAPGKERELVATINTDGDSTYYADSVKGRFTISRDNAKNTVYLQMNSLKPEDTAVYYCNKRLTQAYDDQVGYDYWGQGTQVTVSS	low polyreactivity
QVQLVESGGGIVQAGVSLRLSCAASGISYSPNVMGWYRQAPGKERELVASISSGGSTYYADSVNGRFTISRDNATNSVYLQMNSLKPEDTAVYYCAAEVDGYWTYYYWGQGTQVTVSS	low polyreactivity
QVQIVESGGGLVQAGGSLRLSCAASGSIFARMAMGWYRQAPGKEWELVAAITTGGITNYADSLKGLFTISRDNAKNTVYLQMNSLKPDDTAVYYCAATSWRYQQSTRYKGRRYYSWGQGTQVTVSS	high polyreactivity
QVQLVESGGGLVQAGGSLRLSCAASGSIFVQYAMGWYRQAPGKERELVAAITRRAGSTYYADSVKGRFTISRDNAKNTVYLQMNSLKPEDTAVYYCAAGYRYRYTRDIWYEYWGQGTQVTVSS	high polyreactivity
QVQLVESGGGLVQAGGSLRLSCAASGLIFYRYAMGWYRQAPRKERELVARISYRTTSTYYADSVKGRFTISRDNAKNNVYLQMNSLKPEDTAVYYCAASRFAYRVRYLFEYWGHGTQVTVSS	high polyreactivity
PVQLVESGGGLVQAGGSLRLSCAASGSIFGYYAMGWYRQAPGKERELVAAITWSGDSTYYADSVKGRFTISRDNAKNTVYLQMNSLKPEDTAVYYCAARQFVHTRYFSFGYWGQGTQVTVSS	low polyreactivity
QVQLVESGGGLVQAGGSLRLSCAASGITFYSNAMGWYRQAPGKERELVAAISYRGGSTYYADSVKGRFTISRDNAKNTVYLQMNSLKPEDTAVYYCNKEVDWGWGRISYDSWGQGTQVTVSS	low polyreactivity
QVQLVESGGGLVQAGGSLRLSCAASGSIFDGNAMGWYSQAPGKERELVAAITTDYRTYYADSVKGRFTISRDNAKNTFYLQMNSLKPEDTAVYYCNVVIYYFNSRTVYYDYDYWGQGTQVTVSS	high polyreactivity
